Results: the supplement of paper PMC7125110
± gives the standard error. For part of these data: Fewer inactive variants are shown than the library holds.

B1: glmS ribozyme (parent)
chain: AUAAAAGCGCCAGAACUACAGAAAUGUAGUUGACGAGGAGGAGGUUUAUCGAAUUUUCGGCGGAUGCCUCCAAA

Tests used:
Conditions in all cases: with glucosamine-6-phosphate
glucosamine-6-phosphate [1] = variants of: B1; test: kcat; higher = faster cleavage; RNA array
Procedure, shortened: (§1)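 Glucosamine-6-phosphate (40 μM to 10 mM) in HEPES/KCl/Mg(OAc)2 buffer was flowed over sequenced MiSeq chips, and tiles were imaged over ~14 h. Barcoded ribozyme variants there had been transcribed in situ by E. coli RNA polymerase and were tracked through a hybridised Cy3 probe at 37 °C. One- or two-exponential decay fits to per-tile medians, normalised to baseline and to non-cleaving reference variants, gave kobs. kcat and KM came from weighted Michaelis–Menten fits across concentrations.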

glucosamine-6-phosphate [2] = variants of: B1; test: KM; higher = weaker cofactor use; RNA array
Procedure, shortened: as §1

glucosamine-6-phosphate [3] = variants of: B1; test: self-cleavage kobs at 40 uM GlcN6P; higher = faster cleavage; RNA array
Procedure, shortened: as §1

glucosamine-6-phosphate [4] = variants of: B1; test: self-cleavage kobs at 160 uM GlcN6P; higher = faster cleavage; RNA array
Procedure, shortened: as §1

glucosamine-6-phosphate [5] = variants of: B1; test: self-cleavage kobs at 640 uM GlcN6P; higher = faster cleavage; RNA array
Procedure, shortened: as §1

glucosamine-6-phosphate [6] = variants of: B1; test: self-cleavage kobs at 2500 uM GlcN6P; higher = faster cleavage; RNA array
Procedure, shortened: as §1

glucosamine-6-phosphate [7] = variants of: B1; test: self-cleavage kobs at 10000 uM GlcN6P; higher = faster cleavage; RNA array
Procedure, shortened: as §1

Variant	kcat (glucosamine-6-phosphate [1])	KM (glucosamine-6-phosphate [2])	self-cleavage kobs at 40 uM GlcN6P (glucosamine-6-phosphate [3])	self-cleavage kobs at 160 uM GlcN6P (glucosamine-6-phosphate [4])	self-cleavage kobs at 640 uM GlcN6P (glucosamine-6-phosphate [5])	self-cleavage kobs at 2500 uM GlcN6P (glucosamine-6-phosphate [6])	self-cleavage kobs at 10000 uM GlcN6P (glucosamine-6-phosphate [7])
G37A A53U	0.00237 ± 0.00046 s⁻¹	3520 ± 930 µM	4.73e-05 ± 1.1e-05 s⁻¹	9.91e-05 ± 1.2e-05 s⁻¹	0.000367 ± 3.5e-05 s⁻¹	0.000924 ± 0.0001 s⁻¹	0.00185 ± 0.00023 s⁻¹
U56G C67G	0.000876 ± 9.7e-05 s⁻¹	1260 ± 220 µM	3.84e-05 ± 5.8e-06 s⁻¹	9.74e-05 ± 8.1e-06 s⁻¹	0.00028 ± 2.1e-05 s⁻¹	0.000582 ± 5.1e-05 s⁻¹	0.00081 ± 7.6e-05 s⁻¹
G63U C70G	2.12e-05 ± 4.8e-06 s⁻¹	–	–	–	2.59e-05 ± 1.1e-05 s⁻¹	2.19e-05 ± 1e-05 s⁻¹	–
G29A C70A	3.87e-05 ± 5e-06 s⁻¹	–	–	–	4.17e-05 ± 1.5e-05 s⁻¹	4.02e-05 ± 1.1e-05 s⁻¹	2.96e-05 ± 1.4e-05 s⁻¹
A12C G44A A53U	0.000479 ± 4.3e-05 s⁻¹	4570 ± 530 µM	–	–	5.92e-05 ± 1.6e-05 s⁻¹	0.000169 ± 4.4e-05 s⁻¹	–
A14U A33U	0.000182 ± 2.6e-05 s⁻¹	–	–	–	–	2.81e-05 ± 1e-05 s⁻¹	7.63e-05 ± 9.8e-06 s⁻¹
A14U U46G	0.0012 ± 0.00012 s⁻¹	2150 ± 380 µM	1.98e-05 ± 6.9e-06 s⁻¹	9.07e-05 ± 2.1e-05 s⁻¹	0.000293 ± 4.6e-05 s⁻¹	0.000548 ± 0.0001 s⁻¹	0.00104 ± 0.00012 s⁻¹
A33C A39C	3.87e-05 ± 3.3e-06 s⁻¹	–	–	–	–	3.92e-05 ± 8e-06 s⁻¹	3.54e-05 ± 7.3e-06 s⁻¹
C16U A42U	0.000129 ± 1e-05 s⁻¹	903 ± 300 µM	–	–	4.79e-05 ± 1.9e-05 s⁻¹	0.000107 ± 2.2e-05 s⁻¹	0.000115 ± 1.7e-05 s⁻¹
A48C G66A	0.000159 ± 2.8e-05 s⁻¹	–	–	< 1e-05 s⁻¹	–	8.27e-05 ± 1.8e-05 s⁻¹	0.000121 ± 1.4e-05 s⁻¹
C58U	0.00011 ± 3.8e-06 s⁻¹	4350 ± 360 µM	< 1e-05 s⁻¹	–	1.66e-05 ± 1.8e-06 s⁻¹	3.96e-05 ± 1.2e-06 s⁻¹	7.7e-05 ± 1.3e-06 s⁻¹
C10G C61A	1.32e-05 ± 9.6e-07 s⁻¹	180 ± 67 µM	< 1e-05 s⁻¹	–	< 1e-05 s⁻¹	–	< 1e-05 s⁻¹
C50G U57C	4.02e-05 ± 1.6e-05 s⁻¹	–	–	4.88e-05 ± 2e-05 s⁻¹	–	5.18e-05 ± 1.7e-05 s⁻¹	–
C16A U54G	0.00103 ± 0.0004 s⁻¹	–	4.66e-05 ± 1e-05 s⁻¹	9.7e-05 ± 1.9e-05 s⁻¹	0.00029 ± 4.8e-05 s⁻¹	0.000532 ± 9.9e-05 s⁻¹	0.00141 ± 0.00027 s⁻¹
U65C C71A	0.000104 ± 5.5e-06 s⁻¹	481 ± 140 µM	–	–	6.26e-05 ± 2.5e-05 s⁻¹	8.23e-05 ± 2e-05 s⁻¹	0.000102 ± 2.3e-05 s⁻¹
